The data set has as its system MS2 coat protein. Kind of data set: apparent KD of MS2 coat protein; designed switch direction (-1 OFF switch, 1 ON switch): -1; higher = weaker reporter binding. In short, it runs like this:
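Stalled E. coli RNA polymerase transcribed designed RNA switches on Illumina chips, which were then titrated with SNAP-549-labelled MS2 coat protein, doubling from 0.7 or 1.5 nM to 3 µM. Steps lasted from 0.8–1.5 h at the lowest concentration to 10–20 min at the highest. The apparent KD is each design's median over clusters of curve-fitted normalised fluorescence.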

The mark [1] stands for this setting: Eterna round: R95, input ligand: microRNA oligo, concentration not stated.
Where [2] appears, read: Eterna round: R95, input ligand: FMN 200 uM.
Where [3] appears, read: Eterna round: R95, input ligand: none.
Where [4] appears, read: input ligand: microRNA oligo, concentration not stated.

With “AUAUAGUCAGGAUAUACAUGAGGAUCACCCAUGUGGUAGUAGAUACAGUAGAGAUAGAGUAGAAGGGACGAUGA [EX3 #24] (Eterna round: R97, puzzle: Exclusion 3)”, the “apparent KD of MS2 coat protein” value reads like this: (input ligand: FMN 200 uM) 113 nM; (input ligand: none) 31 nM.

Regarding “AUAUAGUCAGGAUAUCGAAGUGAGUGUUGGUUUGUAAGGUACGAGAAGGGACAUGAGGAUCACCCAUGUAGGAA [JR_Exclusion4)Sub003] (puzzle: Exclusion 4)”, under setting [1], the “apparent KD of MS2 coat protein” value came to 42.7 nM.

For “AUAUUACAUGAGGAUCACCCAUGUGAGGAUAUGGAGAGAGACCGCCCGGUCGCGUACACCAGAAGGCGCAGGCG [1st #60] (Eterna round: R97, puzzle: Exclusion 1)”, the “apparent KD of MS2 coat protein” value by setting is: (input ligand: FMN 200 uM) 19.8 nM; (input ligand: none) 21.2 nM.

In the case of “AUAUUACGAGGAUAUCGUUUUUAUCACAUGAGGAUCACCCAUGUAAUUUAUGUUUCGUUUCGAGAAGGCGUAAGUU [JR_E5_Sub068] (puzzle: Exclusion 5)”, under setting [1], the “apparent KD of MS2 coat protein” value worked out at 17.8 nM.

Consider “AUAUUACGAGGAUAUCGUUUUUUUCACAUGAGGAUCACCCAUGUUAUCCAUGUUUCGUUUCGAGAAGGCGUAAGUU [JR_E5_Sub070] (puzzle: Exclusion 5)”, for which, under setting [1], the “apparent KD of MS2 coat protein” value worked out at 46.9 nM.

Consider “AUCAUGUCAGGAUAUAUGACAUGGCUCUUCGGAGCAAGAUCAUAGAAGGGACAUGAGGAUCACCCAUGUAGAUC [Ex4-3: 23] (puzzle: Exclusion 4)”, for which the “apparent KD of MS2 coat protein” value came out at 41.9 nM under setting [2], 195 nM under setting [1] and 188 nM under setting [3].

On to “AUCCCUUGAGUAAGGAUAUGGCCAGGGAGGUCUGGCCAGAAGGUACAUGAGGAUCACCCAUGUAGGUUGUCGCA [Eternabot (L2) Solution 44] (Eterna round: R97, puzzle: Brourd's mod of Exclusion 4)”, for which the “apparent KD of MS2 coat protein” value by setting is: (input ligand: FMN 200 uM) 56 nM; (input ligand: none) 20.6 nM.

In the case of “AUCCGUUCUUAGGAUAUUUGAUAAGUCAUGUACGAAGAAGGAAGAACAUGAGGAUCACCCAUGUGGGACUUCGG [Eternabot (L2) Solution 12] (Eterna round: R97, puzzle: Exclusion 6)”, the “apparent KD of MS2 coat protein” value is, setting by setting: (input ligand: FMN 200 uM) 29 nM; (input ligand: none) 25.9 nM.

Take “AUCCUUAACAAGGAUAUCGGGCGGGUUUUUGUUUGAGAAGGUGUGACAUGAGGAUCACCCAUGUGGCGCGUGGG [-22, -20.4 kcal, A 22%] (Eterna round: R97, puzzle: Exclusion 6)”: the “apparent KD of MS2 coat protein” value reads like this: (input ligand: FMN 200 uM) 285 nM; (input ligand: none) 887 nM.

Take “AUCGGCUCAGUCAGGAUAUGAUUGAAUCGUUGCAAUUAGAAGGGACAUGAGGAUCACCCAUGUGCGGUGCGGUC [Eternabot (L1) Solution 27] (Eterna round: R97, puzzle: Brourd's mod of Exclusion 4)”: the “apparent KD of MS2 coat protein” value by setting is: (input ligand: FMN 200 uM) 178 nM; (input ligand: none) 169 nM.

Take “AUCGGGUCAGGAUAUCAUAGGAGCUGAUAUCCUCGGCUCGGUGAGAAGGGACUUGAGGAUCACCCAAGUAGGGC [Ririonte] (Eterna round: R97, puzzle: Exclusion 4)”: the “apparent KD of MS2 coat protein” value came out at 44.4 nM (input ligand: FMN 200 uM) and 46.1 nM (input ligand: none).

Regarding “AUCGUGCAGCAAAGCUGUACGAGUACAUGAGGAUCACCCAUGUAGGAUAUGGUACGCAAAGCGUGCUAGAAGGAUAUGUGUAGG [Mat - Exclusion NG 3 - Mod of JL - D84] (Eterna round: R96, puzzle: Exclusion NG 3)”, the “apparent KD of MS2 coat protein” value (input ligand: FMN 200 uM) amounted to 69.6 nM, the “apparent KD of MS2 coat protein” value under setting [4] was found to be 44.6 nM and the “apparent KD of MS2 coat protein” value (input ligand: none) is 57.1 nM.

“AUCGUGCAGCUUUGCUGUACGAGUACAUGAGGAUCACCCAUGUAGGAUAUGGUACGCAAAGCGUGCUAGAAGGAUAUGAGAAAU [Mat - Exclusion NG 3 - Mod of JL - D99] (Eterna round: R96, puzzle: Exclusion NG 3)”: the “apparent KD of MS2 coat protein” value amounted to 30.7 nM (input ligand: FMN 200 uM), 18.8 nM under setting [4] and 36.3 nM (input ligand: none).

With “AUCGUGCAGCUUUGCUGUACGAGUACAUGAGGAUCACCCAUGUAGGAUAUGGUACGCUUUGCGUGCUAGAAGGAUAUGCGAUUG [EX ENG3 1.46] (Eterna round: R96, puzzle: Exclusion NG 3)”, under setting [4], the “apparent KD of MS2 coat protein” value was 36.5 nM.

In the case of “AUCGUGCAGCUUUGCUGUACGAGUACAUGAGGAUCACCCAUGUAGGAUAUGGUACGCUUUGCGUGCUAGAAGGAUAUGUGUAGG [JL EXNG3 1.36] (Eterna round: R96, puzzle: Exclusion NG 3)”, the “apparent KD of MS2 coat protein” value (input ligand: FMN 200 uM) was found to be 49.1 nM, the “apparent KD of MS2 coat protein” value under setting [4] is 30.7 nM and the “apparent KD of MS2 coat protein” value (input ligand: none) turned out to be 50.3 nM.

As for “AUCGUGUGAGGAUAUCGAUCAUGGAGGUCUAGGUCCAUGCGCGAGAAGGCACAUGAGGAUCACCCAUGUAAUGG [jl-ex4-4.30 ViennaUCT mod] (Eterna round: R97, puzzle: Exclusion 4)”, the “apparent KD of MS2 coat protein” value was determined as 65.3 nM (input ligand: FMN 200 uM) and 66.5 nM (input ligand: none).

In the case of “AUCUACCGAGCAGGAUAUCCAGGCACAUGAGGAUCACCCAUGUCAGGGAGAGAAGUUGUUUGCGUGGAGAAGGGCUAUAAAUUA [Isdiatte] (Eterna round: R96, puzzle: Exclusion NG 2)”, the “apparent KD of MS2 coat protein” value is, setting by setting: (input ligand: FMN 200 uM) 314 nM; under setting [4], 163 nM; (input ligand: none) 162 nM.

For the sequence “AUCUGUGAGCGAGGAUAUCUGCUGUUGUCGGUCGGAGAAGGCGCGGACAGAACAUGAGGAUCACCCAUGUGUAUGGGCGGCCUC [Isvetima] (Eterna round: R96, puzzle: Exclusion NG 1)”, the “apparent KD of MS2 coat protein” value came out at 256 nM (input ligand: FMN 200 uM), 14.1 nM under setting [4] and 99.6 nM (input ligand: none).

“AUGAGACAUGAGGAUCACCCAUGUGAGGAUAUGUAUGGAUGGAGGAAAGAAUGAGAGAACAGAAGGCACGGAGG [JR_Exclu1_Sub065] (puzzle: Exclusion 1)”: the “apparent KD of MS2 coat protein” value by setting is: under setting [2], 70.7 nM; under setting [1], 72.7 nM; under setting [3], 112 nM.

Turning to “AUGCGACAUGAGGAUCACCCAUGUGAGGAUAUGCGAAUGCAGACUUCGGUUUGAUAGAGCAGAAGGCGCAGGUA [EX1 #15] (Eterna round: R97, puzzle: Exclusion 1)”, the “apparent KD of MS2 coat protein” value is, setting by setting: (input ligand: FMN 200 uM) 58.5 nM; (input ligand: none) 29.4 nM.

In the case of “AUGCUCCGUGUAGGAUAUCGCCGUACCACUCGGCGAGAAGGACAUGAGGAUCACCCAUGUAUGUUAUUAUCACGUGUGGCGCGC [Design 50] (Eterna round: R96, puzzle: Exclusion NG 1)”, the “apparent KD of MS2 coat protein” value is, setting by setting: (input ligand: FMN 200 uM) 46 nM; under setting [4], 12.9 nM; (input ligand: none) 20.5 nM.

Consider “AUGGCAAAGUUAGGAUAUGCAGUCUCCAAGACUGCAGAAGGAACGGUCCUCCUCCCUGAAACAUGAGGAUCACCCAUGUAAAGC [Eternabot solution 45] (Eterna round: R96, puzzle: Exclusion NG 1)”, for which the “apparent KD of MS2 coat protein” value was 56.4 nM (input ligand: FMN 200 uM), 53.7 nM under setting [4] and 93.8 nM (input ligand: none).

Take “AUGUGCACGCUGCGGUCCUACAUGAGGAUCACCCAUGUGGUCUGGUGGCGUGGGUCACCGGACUUGGCUCGUCUUGC [salish99_S_TOV1_R5_058] (Eterna round: R97, puzzle: Sensor, turn-off variant 1)”: the “apparent KD of MS2 coat protein” value by setting is: (input ligand: FMN 200 uM) 21.4 nM; (input ligand: none) 21.2 nM.

(Values after the supplement of paper PMC9170038.)
